The results in this text go back to US20240239864A1 (US Dept. of Health and Human Services, published 2024).

This assay has as its target T1, HLA-A*02:01 CD22 p228-236 tetramer (human).
T1 construct: Bought monomer, loaded by UV peptide exchange and made into a tetramer; The streptavidin and label are not described; also called p-MHC tetramer
The experiment in a line: p-MHC tetramer staining of T cells of co-culture well D146W8, flow cytometry. For orientation: A flow cytometer gives signals particle by particle.

B1: TCR clone D146W8 (native clone on the T cells of co-culture well D146W8) (TCR, V domains shown)
V domain 1: QKEVEQNSGPLSVPEGAIASLNCTYSDRGSQSFFWYRQYSGKSPELIMFIYSNGDKEDGRFTAQLNKASQYVSLLIRDSQPSDSATYLCAVKGAGGFKTIFGAGTRLFVKA
V domain 2: DTGVSQNPRHKITKRGQNVTFRCDPISEHNRLYWYRQTLGQGPEFLTYFQNEAQLEKSRLLSDRFSAERPKGSFSTLEIQRTEQGDSAMYLCASSPGNTEAFFGQGTRLTVV
notes: also called D146W8 TCR; not shown: constant region of the native human clone
B1: the binding result is reported as “binds”.
